Laboratory results taken from the supplement of paper PMC10567573.

B1: ZNF232 (parent)
chain: GKAYGWCSELIRHRRVHARKEPSH
B2: TRIM9 (parent)
chain: PRNSCITCPQCHRSLILDDRGLRG

Variants of: B1
Assay: protein stability index of a GFP-peptide fusion (GPS, HEK-293T) (PSI 1-6); higher = more stable
Details: c terminus: a fixed tail appended
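Further: lentivirally expressed fusions sorted by FACS into six bins by GFP to DsRed ratio, PSI derived from sequencing read proportions per bin multiplied by bin number.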

Protein stability index: each site, then its substitutions
H13: F 1.94 | V 2.1 | M 2.36 | T 3.16 | I 1.89 | Q 3.22 | D 2.99 | S 2.57 | Y 2.24 | G 3.46 | C 2.39 | P 2.75 | A 2.62 | N 2.69 | E 3.42 | K 3.29 | R 3.53 | L 1.97 | W 3.04
A18: E 3.74 | C 2.88 | D 3.84 | F 2.49
G1: E 3.39 | P 3.44 | C 2.73 | R 2.87 | I 2.72 | K 2.75 | V 2.45 | Y 2.37 | H 2.75 | M 2.55 | D 3.43 | T 3.35 | A 2.89 | S 3.08 | F 2.79 | Q 3.28 | L 2.85 | N 3.14 | W 1.97
R15: K 3 | S 3.36 | W 2.25 | H 2.92 | C 1.99 | Y 2.38 | G 2.61 | D 2.61 | F 2.45 | L 2.02 | P 3.25 | A 2.81 | N 2.93 | Q 3.07 | V 2.44 | I 2.56 | M 3.16 | T 3.19 | E 3.28
I11: E 3.43 | M 3.18 | T 3.34 | Q 4.02 | L 2.61 | S 3.8 | P 3.11 | R 3.67 | G 3.35 | N 3.02 | W 2.79 | Y 2.9 | F 2.79 | V 2.92 | D 3.9 | H 3.31 | K 3.16 | C 3.37 | A 3.41
R12: C 2.57 | N 3.36 | M 2.25 | S 3.16 | Q 3.02 | T 3.1 | E 3.54 | K 3.17 | A 2.82 | V 2.31 | D 3.03 | L 2.65 | Y 2.32 | G 2.92 | F 2.41 | W 2.14 | I 2.22 | P 3.21 | H 3.24
K2: G 3.54 | L 2.61 | Q 3.26 | R 2.79 | Y 3.5 | W 1.85 | D 3.2 | F 2.62 | I 2.72 | C 2.41 | S 2.84 | N 2.62 | P 3.44 | V 2.79 | H 3.01 | M 2.55 | T 3.12 | A 3.3 | E 2.82
V16: I 2.42 | H 3.41 | G 3.53 | D 3.49 | S 3.48 | M 3.43 | C 2.52 | W 2.55 | Q 3.53 | N 3.26 | P 3.35 | F 2.87 | L 2.9 | E 3.16 | K 3.22 | Y 2.74 | T 3.07 | A 2.71 | R 3.67
G5: R 2.9 | E 2.89 | F 2.5 | Y 2.13 | Q 3.09 | T 2.79 | S 2.99 | V 2.22 | C 1.59 | H 3.04 | D 2.92 | N 3.56 | W 2.14 | P 3.25 | A 3.55 | K 2.95 | L 1.72 | M 2.94 | I 2.29
A3: L 2.29 | M 2.77 | T 3.02 | F 2.73 | E 3.04 | V 2.97 | H 2.69 | C 2.89 | I 2.35 | Q 2.95 | W 2.48 | R 2.92 | P 2.81 | N 3.12 | K 3.1 | D 3.39 | Y 2.53 | G 3 | S 3.46
L10: D 3.5 | E 2.84 | W 2.77 | H 3.64 | C 2.15 | K 3.08 | M 3.43 | N 3.54 | R 3.35 | I 2.84 | V 3.54 | T 3.16 | F 2.6 | P 3.8 | Q 2.78 | Y 2.22 | A 3.08 | S 3.4 | G 3.55
H17: M 2.75 | K 3.32 | G 3.57 | N 2.72 | I 2.51 | A 2.77 | C 3.46 | F 2.49 | T 3.28 | P 3.02 | W 1.87 | D 3.36 | R 3.03 | E 3.28 | Y 2.16 | S 2.76 | Q 3.04 | L 2.99 | V 2.84
W6: K 4.02 | N 3.98 | M 3.82 | I 3.27 | Q 3.81 | C 2.6 | Y 2.95 | F 3.65 | R 3.7 | P 4.61 | L 2.95 | V 3.59 | G 3.96 | A 3.49 | S 3.65 | T 3.69 | D 4.05 | E 3.35 | H 3.67
E9: L 2.73 | Q 2.64 | A 2.74 | D 3.12 | T 3.53 | K 2.96 | G 3.03 | F 1.59 | C 1.76 | R 2.83 | I 2.51 | M 1.66 | N 2.84 | V 1.21 | H 3.25 | P 3.24 | S 3.02 | Y 2.18 | W 1.81
R14: G 2.72 | N 3.23 | C 1.86 | I 2.04 | K 2.61 | Y 2.05 | L 2.03 | D 2.65 | Q 3.08 | T 2.62 | S 2.27 | P 2.95 | E 2.86 | W 1.94 | F 2.33 | M 1.73 | A 2.9 | H 2.77 | V 2.45
C7: S 3.82 | A 3.3 | T 3.26 | L 2.34 | V 2.06 | I 2.17 | Y 2.57 | W 3.05 | R 3.59 | N 4.19 | K 3.54 | M 2.62 | D 3.42 | G 3.89 | P 3.61 | F 2.42 | Q 3.18 | E 3.67 | H 3.37
S8: Q 3.36 | C 2.14 | H 2.69 | M 1.94 | V 2.02 | W 1.97 | T 3.25 | E 3.2 | Y 2.34 | G 2.5 | D 3.22 | K 2.6 | I 1.57 | L 2.45 | F 1.97 | P 3.21 | R 2.99 | A 2.67 | N 3.21
Y4: A 3.54 | P 4.12 | M 3.07 | C 2.2 | T 3.19 | I 3.06 | Q 3.75 | L 2.76 | D 4.04 | K 3.62 | F 2.84 | S 4.18 | V 3.04 | G 3.77 | H 3.63 | W 2.62 | N 3.83 | E 3.62 | R 3.6

Variants of: B2
Assay: as above
Details: c terminus: a fixed tail appended

Protein stability index, by site and new letter:
G24: S 2.35 | V 2.32 | W 1.76 | Q 2.28 | T 2.23 | R 1.22 | Y 1.84
